Source: patent publication EP4714973A1 (Gracell Bioscience (Shanghai) Co., Ltd., dated 2026)

B1: scFv antibody M26 with the Fc fragment of murine IgG2a at the C-terminal (Fc fusion, not shown: a dimerising Fc or GST; small tags and cut ends)
scFv: EVQLQQSGPELVKPGASVKMSCKASGYTFTSYFIHWVKQKPGQGLEWIGFINPYNDGSKYNEKFKGKATLTSDKSSSTAYMELSSLTSEDSAVYYCTRDDGYYGYAMDYWGQGTSVTVSSGGGGSGGGGSGGGGSDIQMTQSPSSLSASLGERVSLTCRATQELSGYLSWLQQKPDGTIKRLIYAASTLDSGVPKRFSGNRSGSDYSLTISSLESEDFADYYCLQYAIYPYTFGGGTKLEIK
notes: also called M26 scFv
B2: C5 single-domain antibody with the Fc fragment of murine IgG2a at the C-terminal (Fc fusion, not shown: a dimerising Fc or GST; small tags and cut ends)
VHH: QVQLVESGGGLVQPGGSLRLSCAASGFTFSSYDMGWARQVPGKAVEWVSGIYSDGSTYYADSVKGRFTISRDNAKNTVYLQMNSLKPEDTAVYYCATDPLTSELRSWGQGTQVTVSS
notes: also called C5 VHH-mIgG2aFc
B3: C9 single-domain antibody with the Fc fragment of murine IgG2a at the C-terminal (Fc fusion, not shown: a dimerising Fc or GST; small tags and cut ends)
VHH: QVQLVESGGGLVQPGGSLRLSCAASGFTFSSYAMGWARQVPGKDVEWVSGIYSDGSTYYADSVKGRFTISRYNAKNTVYLQMNSLKPEDTAVYYCATDPTLENQTTAWGQGTQVTVSS
notes: also called C9 VHH-mIgG2aFc
B4: C1 single-domain antibody with the Fc fragment of murine IgG2a at the C-terminal (Fc fusion)
chain: QVQLVESGGGLVQPGGSLRLSCAASGFTFSSKTMGWARQVPGKAIEWLSGIYSDGSTYYADSVKGRFTISRDNAKNMVYLQMNSLKPEDTAVYYCATEDLTSYGRGTQVTVSS
notes: also called C1 VHH-mIgG2aFc; not shown: Fc fragment of murine IgG2a, added to the C-terminal of the VHH
B5: C3 single-domain antibody with the Fc fragment of murine IgG2a at the C-terminal (Fc fusion, not shown: a dimerising Fc or GST; small tags and cut ends)
VHH: QVQLVESGGGLVQPGGSLRLSCAASGFTFSSYAMGWARQVPGKEVEWVSGIYSDGRTYYADSVKGRFTISRDNAKNEVYLQMNSLKPEDTAVYYCAPEPGQGVGDYWGQGTQVTVSS
notes: also called C3 VHH-mIgG2aFc
B6: C7 single-domain antibody with the Fc fragment of murine IgG2a at the C-terminal (Fc fusion, not shown: a dimerising Fc or GST; small tags and cut ends)
VHH: QVQLVESGGGLVQPGGSLRLSCAASGFTFSSYAMGWARQVPGKEVEWVSGIYSDGSTNYADSVKGRFTISRDNAKNTVYLQMNSLRPEDTAVYHCATDPTVHSDLPVWGQGTLVTVSS
notes: also called C7 VHH-mIgG2aFc

target: T1, CLL1 on the surface of cells (HL60, KG1, Hela-CLL1) (UniProt Q5QGZ9 1-265, limits assumed); test: flow cytometry, serial dilution of scFv-mIgG2a Fc on HL60 cells (comparator, weaker signal)
T1 construct: whole, on cells; HL60 and KG1 are human cell lines; also called CLEC12A; CD371
T1 sequence (looked up): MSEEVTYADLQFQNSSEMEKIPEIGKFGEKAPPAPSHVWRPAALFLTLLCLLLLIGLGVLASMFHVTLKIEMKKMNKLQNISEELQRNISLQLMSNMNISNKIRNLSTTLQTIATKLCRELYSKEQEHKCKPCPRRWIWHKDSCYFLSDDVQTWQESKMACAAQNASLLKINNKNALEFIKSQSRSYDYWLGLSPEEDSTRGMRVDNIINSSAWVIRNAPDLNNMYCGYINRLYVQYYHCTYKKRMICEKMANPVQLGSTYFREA

Binding result, binds:
B1

target: T1, CLL1 on the surface of cells (HL60, …); test: flow cytometry, serial dilution of VHH-mIgG2a Fc on HL60 cells

Binding result, binds:
B2
B3
B4
B5
B6
